Experiments:
[1] = system: β2AR; assay: Agonist affinity shift assay ([125I] iodopindolol), formation of high agonist affinity complex (HAC); assay type: binding; conditions: 1 μM arrestin, FIG. 2A
Source text: (§1) Mutagenesis and Biochemical Characterization of β-Arrestins—Mutations Arg169→Glu (CGG→GAG), Gln394→Ter (CAA→TAA), and Asp383→Ter (GAT→TAG) were introduced by polymerase chain reaction in β-arrestin construct pBARR (Gurevich et al. (1995) J. Biol. Chem. 270:720-731), that was used for in vitro transcription and translation, as described (Gurevich et al. (1995), supra). NcoI/HindIII 1404-base pair open reading frame was then subdloned into appropriately digested Escherichia coliexpression vector pTrcHisB (Invitrogen). […]
Agonist Affinity ShiftAssay—P-β2AR or β2AR (10-15 fmol/assay) was incubated in 0.25 ml of 10 mM Tris-HCl, pH 7.4, 100 mM NaCl (buffer A) containing 0.1 mg/ml bovine serum albumin in the presence of 65-75 fmol of [^125I] iodopindolol (NEN Life Science Products) and the indicated concentrations of arrestins and agonists for 60 min at 22° C. […] Receptor-containing liposomes with bound radioligand were eluted with buffer A (between 0.6 and 1.5 ml), and radioactivity was quantitated in a liquid scintillation counter. Nonspecific binding was determined in the presence of 10 μM alprenolol. […]

[2] = system: β2AR; assay: Direct binding assay of in vitro translated tritiated arrestins to purified β2AR reconstituted into phospholipid vesicles; conditions: unphosphorylated β2AR, activated by 0.1 mM agonist isoproterenol; FIG. 1A
Source text: as §1
Direct Binding Assay—In vitro translated tritiated arrestins (50 fmol) were incubated in 50 mM Tris-HCl, pH 7.5, 0.5 mM MgCl2, 1.5 mM dithiothreitol, 50 mM potassium acetate with 7.5 pmol of the various functional forms of rhodopsin or with P-β2AR or β2AR (100 fmol/assay) in a final volume of 50 μl for 5 min at 37° C. in room light (rhodopsin) or for 60 min at 30° C. in the presence of 0.1 mM -agonist isoproterenol. […] Nonspecific binding determined in the presence of 0.3 μg of liposomes was subtracted.

binding to activated unphosphorylated receptor [2]: significantly higher binding
B1: β-arrestin-(Arg169→Glu): bovine β-arrestin mutant Arg169→Glu that reverses the charge of the putative phosphorylation-sensitive trigger (protein)
chain: MGDKGTRVFKKASPNGKLTVYLGKRDFVDHIDLVEPVDGVVLVDPEYLKERRVYVTLTCAFRYGREDLDVLGLTFRKDLFVANVQSFPPAPEDKKPLTRLQERLIKKLGEHAYPFTFEIPPNLPCSVTLQPGPEDTGKACGVDYEVKAFCAENLEEKIHKRNSVRLVIEKVQYAPERPGPQPTAETTRQFLMSDKPLHLEASLDKEIYYHGEPISVNVHVTNNTNKTVKKIKISVRQYADICLFNTAQYKCPVAMEEADDTVAPSSTFCKVYTLTPFLANNREKRGLALDGKLKHEDTNLASSTLLREGANREILGIIVSYKVKVKLVVSRGGLLGDLASSDVAVELPFTLMHPKPKEEPPHREVPEHETPVDTNLIELDTNDDDIVFEDFARQRLKGMKDDKEEEEDGTGSPRLNDR
percentage of HAC formed by unphosphorylated β2AR [1]: 22±4%

From patent US20030157553A1, “Methods of assaying for G protein-coupled receptor ligands and modulators” (priority 2000, published 2003)
